In publication doi:10.1101/477745:

Molecular target: Era fused to SB (small bit of luciferase) (S. aureus) (UniProt Q2FGF6)
Assay: split reporter

YbeY (split luciferase fusion) (natural protein), sequence (A5IT98 whole entry, the tested form may be a part): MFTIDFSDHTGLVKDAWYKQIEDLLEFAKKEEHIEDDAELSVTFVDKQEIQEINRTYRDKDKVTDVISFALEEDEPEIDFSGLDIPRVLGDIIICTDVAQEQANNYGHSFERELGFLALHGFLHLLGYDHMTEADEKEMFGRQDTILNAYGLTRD

luminescence relative to the control (x above the control): 2
Substance: YbeY (split luciferase fusion) (natural protein)
